Source: publication PMC5965902

Target: Cys128 (UniProt position 128, FIDQHCSLMKV)
Test: chemical modification (DTNB/Ellman labelling kinetics followed by UV-vis)
Details: room temperature; 150 mM NaCl; 50 mM citric acid, 50 mM HEPES, 50 mM Bicine, pH adjusted with NaOH or HCl; Free (reduced) thiol form of RitR, 5 μM protein with 20 μM DTNB, no DNA

With “RitR (Repressor of iron transport Regulator), orphan two-component-like response regulator (Streptococcus pneumoniae (strain R800, R6/D39 derivative))” the pKa was 6.85.
